Data: PMC6066450

Biological target: Neurabin (Nrb), endogenous in rat cortical neurons (rat (endogenous in primary cortical neurons)) (UniProt O35867)
Test: co-IP

UniProt O35867, sequence (O35867 whole entry): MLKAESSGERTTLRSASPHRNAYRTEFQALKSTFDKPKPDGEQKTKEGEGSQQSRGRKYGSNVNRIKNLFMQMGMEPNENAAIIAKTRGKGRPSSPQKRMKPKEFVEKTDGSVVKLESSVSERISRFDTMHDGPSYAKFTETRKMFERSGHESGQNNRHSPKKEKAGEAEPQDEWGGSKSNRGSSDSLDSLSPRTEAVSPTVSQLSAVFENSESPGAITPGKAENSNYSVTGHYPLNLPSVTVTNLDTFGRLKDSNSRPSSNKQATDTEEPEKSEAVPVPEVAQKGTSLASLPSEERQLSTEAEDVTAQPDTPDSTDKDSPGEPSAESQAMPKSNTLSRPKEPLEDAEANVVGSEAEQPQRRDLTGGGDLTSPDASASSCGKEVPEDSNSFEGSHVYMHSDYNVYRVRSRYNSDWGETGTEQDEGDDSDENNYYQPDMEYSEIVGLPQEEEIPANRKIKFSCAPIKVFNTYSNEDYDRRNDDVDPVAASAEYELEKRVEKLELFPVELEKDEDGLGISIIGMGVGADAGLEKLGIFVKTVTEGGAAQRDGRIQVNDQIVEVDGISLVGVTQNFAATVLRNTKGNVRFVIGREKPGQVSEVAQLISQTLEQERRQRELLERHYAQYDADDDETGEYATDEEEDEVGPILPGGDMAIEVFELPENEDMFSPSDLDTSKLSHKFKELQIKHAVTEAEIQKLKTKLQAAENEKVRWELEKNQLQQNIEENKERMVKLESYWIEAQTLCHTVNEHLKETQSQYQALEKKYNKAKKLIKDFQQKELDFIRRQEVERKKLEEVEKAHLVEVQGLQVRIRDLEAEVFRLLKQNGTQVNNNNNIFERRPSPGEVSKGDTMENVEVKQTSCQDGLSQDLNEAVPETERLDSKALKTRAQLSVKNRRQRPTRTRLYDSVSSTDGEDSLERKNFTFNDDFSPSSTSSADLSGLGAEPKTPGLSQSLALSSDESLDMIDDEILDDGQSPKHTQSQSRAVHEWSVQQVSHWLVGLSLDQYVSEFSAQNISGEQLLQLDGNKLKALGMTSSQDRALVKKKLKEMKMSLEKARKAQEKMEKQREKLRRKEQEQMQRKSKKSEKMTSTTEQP

PP1 co-IPed with Nrb after forskolin, percent of no forskolin control: 62.8%
Substance: Protein phosphatase-1 (PP1), endogenous in rat cortical neurons (from UniProt P62138 1-330) (enzyme)
